The record followed here is patent US20110160081A1, “FUNCTIONAL COMPLEMENTATION ASSAY FOR DEFINED GPCR OLIGOMERS” (priority 2008, published 2011).

Holding throughout (test): cell-based or functional assay
The target of assay [1] is DOR-Gqi5 (delta opiate receptor fused to Gqi5) (mouse).
Assay [2] addresses N393A/CAM-Gqi5 (human).
Assay [3] has as its target D114^3.32A/E339^6.30A/T343^6.34R-Gq5 (human).

Chain of Myc-tagged D2R (unfused wild type dopamine D2 receptor, short isoform) (P14416 other isoform, or with tags, fused parts or gaps): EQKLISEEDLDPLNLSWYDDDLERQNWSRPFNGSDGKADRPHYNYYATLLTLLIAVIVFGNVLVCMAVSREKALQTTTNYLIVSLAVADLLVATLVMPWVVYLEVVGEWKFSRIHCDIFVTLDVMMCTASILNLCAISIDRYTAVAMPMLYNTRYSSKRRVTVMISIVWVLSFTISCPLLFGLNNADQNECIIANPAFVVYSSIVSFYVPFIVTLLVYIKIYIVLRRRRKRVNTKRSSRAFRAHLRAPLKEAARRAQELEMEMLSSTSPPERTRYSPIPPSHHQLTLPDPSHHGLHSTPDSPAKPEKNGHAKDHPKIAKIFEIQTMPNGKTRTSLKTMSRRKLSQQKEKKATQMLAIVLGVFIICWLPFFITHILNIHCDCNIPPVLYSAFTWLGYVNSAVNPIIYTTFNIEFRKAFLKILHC

In assay [1], DPDPE (peptide) displayed an activation at 5 nM DPDPE, aequorin luminescence of 10 % activation.
In turn, “Myc-tagged D2R (unfused wild type dopamine D2 receptor, short isoform) (from UniProt P14416 2-443)” displayed an aequorin luminescence on quinpirole (functional complementation) in assay [2] of 3 fold. In addition, the potency of quinpirole in the presence of 5 nM DPDPE, aequorin luminescence in assay [1] was found to be 10 fold. For the same substance, in assay [3], the maximal activity, aequorin luminescence is 49.6.
